Laboratory results: patent publication US7214519B2, “Screening method for identifying heme independent modulators of soluble guanylyl cyclase (sGC) activity using αβCys105 mutant sGC” (Board of Regents of the University of Texas System, priority 2003, dated 2007)
Values joined by “and” are separate entries in the source; they are usually repeats but may differ in a detail not shown here. Equal values may be shown once.

Tests used:
[1] = biological target: T1, αβ^Cys105 mutant sGC (Homo sapiens, UniProt Q02108+Q02153, H105C); assay: Assay of sGC activity ([32P]cGMP formation from GTP), purified αβ^Cys105 mutant enzyme; assay type: biochemical; settings: for PPIX activation, fold: 1 μM PPIX
T1 construct: made in house; host or cells: Sf9 cells (baculovirus)
T1 sequence (Q02153 1-619 H105C): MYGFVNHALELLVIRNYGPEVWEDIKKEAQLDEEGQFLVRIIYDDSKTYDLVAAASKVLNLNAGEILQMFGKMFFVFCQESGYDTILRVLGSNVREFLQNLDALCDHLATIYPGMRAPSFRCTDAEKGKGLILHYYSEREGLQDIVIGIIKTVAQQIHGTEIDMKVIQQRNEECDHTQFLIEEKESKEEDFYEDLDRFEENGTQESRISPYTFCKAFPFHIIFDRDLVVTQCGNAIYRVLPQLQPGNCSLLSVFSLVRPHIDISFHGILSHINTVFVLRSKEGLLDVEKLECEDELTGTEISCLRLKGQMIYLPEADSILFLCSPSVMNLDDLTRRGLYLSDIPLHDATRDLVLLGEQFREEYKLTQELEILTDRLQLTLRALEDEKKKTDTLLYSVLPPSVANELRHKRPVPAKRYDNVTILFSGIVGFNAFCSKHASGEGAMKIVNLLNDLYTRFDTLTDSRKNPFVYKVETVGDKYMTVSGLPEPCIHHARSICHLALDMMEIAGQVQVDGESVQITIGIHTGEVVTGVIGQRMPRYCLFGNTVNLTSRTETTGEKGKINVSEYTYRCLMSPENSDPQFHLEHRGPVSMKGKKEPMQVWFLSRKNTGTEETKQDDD
T1 sequence (Q02108 1-690): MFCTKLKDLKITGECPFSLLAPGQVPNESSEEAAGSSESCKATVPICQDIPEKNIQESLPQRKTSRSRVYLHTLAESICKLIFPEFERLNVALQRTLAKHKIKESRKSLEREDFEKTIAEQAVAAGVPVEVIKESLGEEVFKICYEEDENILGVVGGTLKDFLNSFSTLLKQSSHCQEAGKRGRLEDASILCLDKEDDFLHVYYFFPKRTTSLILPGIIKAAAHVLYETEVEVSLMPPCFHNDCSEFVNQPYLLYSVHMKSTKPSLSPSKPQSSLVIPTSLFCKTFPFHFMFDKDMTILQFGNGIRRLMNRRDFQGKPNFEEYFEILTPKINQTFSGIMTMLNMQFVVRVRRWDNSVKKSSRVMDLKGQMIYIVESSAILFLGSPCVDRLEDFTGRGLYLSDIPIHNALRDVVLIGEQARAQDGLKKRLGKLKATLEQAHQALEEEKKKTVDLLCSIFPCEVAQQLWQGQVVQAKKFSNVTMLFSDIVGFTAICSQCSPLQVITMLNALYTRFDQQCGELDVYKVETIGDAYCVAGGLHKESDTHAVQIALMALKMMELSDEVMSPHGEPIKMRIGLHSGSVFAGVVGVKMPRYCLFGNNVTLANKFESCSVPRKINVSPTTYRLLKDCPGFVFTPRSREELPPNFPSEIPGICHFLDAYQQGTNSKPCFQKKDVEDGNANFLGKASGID
Description: sGC Expression and Purification. […] Purification of sGC was performed as described earlier (26), the disclosure of which is hereby incorporated herein by reference, with the following modifications. Cells were harvested 72 h post infection, resuspended in loading buffer (25 mM triethanolamine, pH 7.5. 10 glycerol, 4 mM MgCl2 and 1 mM phenylmethylsulfonyl fluoride, and 5 μg/ml each of pepstatin A, leupeptin, aprotinin, and chymostatin,) and lysed by sonication. The lysate was subjected to 100,000×g centrifugation for 1 h. The high-speed supernate was loaded on a 60 ml DEAE-Sepharose (Amersham Pharmacia Biotech) column and washed with 60 ml of loading buffer without protease inhibitors. The proteins were eluted with loading buffer containing 250 mM NaCl and the eluate was directly loaded on a 30 ml His-Bind resin (Novagen) column. The column was washed with 60 ml of loading buffer followed by 60 ml of loading buffer with 45 mM imidazole. The enzyme was eluted with 175 mM imidazole and 2 ml fractions were collected. […] The enzyme at this stage was approximately 90–95% pure. To remove imidazole, sGC-containing fractions were diluted 3 fold with 25 mM triethanolamine pH 7.5, loaded on a 2 ml Hi-Trap DEAE-Sepharose column (Amersham Pharmacia Biotech), washed with 10 ml of loading buffer and eluted with 25 mM triethanolamine pH 7.5, 250 mM NaCl, 10 glycerol, 4 mM MgCl2, 0.5 mM EDTA, 0.5 mM EGTA. The enzyme obtained at this stage (95% or greater purity) was used for experiments.
Assay of sGC Activity. Enzyme activity was assayed by formation of [^32P] cGMP from α[^32P]GTP at 37° C. in a final volume of 100 μl. Incubation medium contained 50 mM triethanolamine-HCl buffer (pH 7.4), 1 mM 3-isobutyl-1-methylxanthine (IBMX), 1 mg/ml BSA. 1 mM cGMP, 3 mM MgCl2, 0.05 mg/ml creatine phosphokinase, 5 mM creatine phosphate, 0.1 mM EGTA. 200 μM GTP (about 10.000 cpm/pmol). The reaction was started by addition of the substrate (GTP) with or without activators. 1 mM DTT, GSH or cysteine were added to the incubation medium before the addition of GTP. Thiol concentration varied in some experiments as indicated. Samples containing 0.2 μg sGC were incubated for 10 or 15 min and the reaction was stopped by addition of 500 μl 150 mM zinc acetate and 500 μl 180 mM sodium carbonate. The pellet of zinc carbonate containing most of the unreacted GTP was removed by centrifugation and the supernatant fractions were loaded onto columns filled with 1 g of neutral alumina. Columns were then eluted with 10 ml 0.1 M Tris-HCl buffer (pH 7.5) and Cherenkov radiation in flow through plus eluate was counted in a LKB liquid scintillation spectrometer. Samples incubated in the absence of sGC were used as a negative control. The concentration of dimethylsulfoxide (DMSO) used as a vehicle for YC-1 was not higher than 0.1 and had no effect on sGC activity as determined previously.

[2] = biological target: T2, Sf9 cells expressing αβ^Cys105 sGC (Homo sapiens, UniProt Q02108+Q02153, H105C); assay: cGMP accumulation in intact Sf9 cells expressing αβ^Cys105 sGC; assay type: cell-based
T2 construct: expressed in transfected cells; host or cells: Sf9 cells infected with baculoviruses
T2 sequence (Q02153 1-619 H105C): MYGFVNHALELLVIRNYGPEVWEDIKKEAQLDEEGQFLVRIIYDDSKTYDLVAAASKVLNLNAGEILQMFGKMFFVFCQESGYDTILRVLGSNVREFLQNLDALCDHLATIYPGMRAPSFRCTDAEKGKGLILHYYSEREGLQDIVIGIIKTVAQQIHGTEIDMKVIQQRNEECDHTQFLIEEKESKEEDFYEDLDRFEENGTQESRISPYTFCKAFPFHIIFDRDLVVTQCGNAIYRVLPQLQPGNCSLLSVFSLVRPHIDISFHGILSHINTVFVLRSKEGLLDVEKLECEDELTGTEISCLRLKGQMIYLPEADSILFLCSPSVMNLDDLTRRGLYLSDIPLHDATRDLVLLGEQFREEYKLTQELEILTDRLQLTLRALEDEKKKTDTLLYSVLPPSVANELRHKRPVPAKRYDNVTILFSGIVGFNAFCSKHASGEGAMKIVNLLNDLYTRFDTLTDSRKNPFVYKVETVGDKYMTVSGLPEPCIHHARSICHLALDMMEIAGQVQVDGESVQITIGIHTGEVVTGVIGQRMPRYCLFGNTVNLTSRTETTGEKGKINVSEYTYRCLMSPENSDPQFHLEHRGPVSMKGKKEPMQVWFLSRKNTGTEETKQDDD
T2 sequence (Q02108 1-690): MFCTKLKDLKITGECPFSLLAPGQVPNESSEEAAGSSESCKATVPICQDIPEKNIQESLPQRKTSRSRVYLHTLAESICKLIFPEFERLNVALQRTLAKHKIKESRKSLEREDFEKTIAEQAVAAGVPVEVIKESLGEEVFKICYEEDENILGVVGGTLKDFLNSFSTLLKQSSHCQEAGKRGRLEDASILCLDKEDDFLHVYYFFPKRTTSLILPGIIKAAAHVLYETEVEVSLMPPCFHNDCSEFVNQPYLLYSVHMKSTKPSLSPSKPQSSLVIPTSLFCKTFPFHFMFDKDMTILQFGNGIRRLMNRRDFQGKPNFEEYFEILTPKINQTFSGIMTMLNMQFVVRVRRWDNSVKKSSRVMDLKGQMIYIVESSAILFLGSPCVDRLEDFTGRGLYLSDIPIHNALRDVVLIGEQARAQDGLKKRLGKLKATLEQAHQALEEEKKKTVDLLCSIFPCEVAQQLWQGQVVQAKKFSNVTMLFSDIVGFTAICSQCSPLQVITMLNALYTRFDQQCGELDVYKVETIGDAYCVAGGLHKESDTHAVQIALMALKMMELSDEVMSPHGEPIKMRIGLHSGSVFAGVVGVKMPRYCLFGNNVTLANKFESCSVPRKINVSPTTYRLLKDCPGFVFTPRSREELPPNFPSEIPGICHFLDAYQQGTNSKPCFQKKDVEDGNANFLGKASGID
Description: Assay of cGMP Accumulation in Intact Cells. […] The reaction was terminated by addition of 50 μl of 1 M perchloric acid and cGMP was extracted on ice for 1 h. The extract was centrifuged, neutralized with 2M K2CO3 and used for cGMP determination by radioimmunoassay (9, 27). The pellet was dissolved in 0.1 M NaOH and used for protein assay by the method of Lowry (28).
Accumulated cGMP was extracted and quantified as described in Materials and Methods. Values are shown as means±s.d. The differences in intracellular accumulation of cGMP in Sf9 cells expressing the wild type enzyme or the mutant form are discussed below.

αβ^Cys105: heme-deficient, constitutively active human soluble guanylyl cyclase mutant; β subunit carries His105→Cys substitution
Km ([1]; +DTT): 153 ± 11 µM | PPIX activation, fold ([1]; +DTT): 5.4 fold | Specific activity ([1]; +NO, with DTT, after heme reconstitution): 0.44 ± 0.08 µmol/min/mg | Specific activity ([1]; +NO, without DTT, after heme reconstitution): 1.2 ± 0.2 µmol/min/mg | Specific activity ([1]; Basal, with DTT (1 mM)): 0.12 ± 0.01 µmol/min/mg | Specific activity ([1]; Basal, without DTT): 1.2 ± 0.3 µmol/min/mg | Km ([1]; No DTT): ~150 µM and 150 µM | PPIX activation, fold ([1]; No DTT): 1.8 fold | Specific activity ([1]; absence of thiols, n=4 independent purifications): 0.0012 ± 0.0003 µmol/min/mg | Specific activity ([1]; sample without any thiols (FIG. 1B, defined as 100)): 1e-06 ± 1e-07 µmol/min/mg | basal cGMP accumulation relative to NO-activated cells overexpressing wild type enzyme [2]: about ten times higher | basal level of cGMP accumulation ([2]; basal, 0.5 mM IBMX): 33 nmol/mg/5 min
